Assay results as given in the RNAGym collection of RNA variant scans (doi:10.1073/pnas.2313332121).

B1: TPR t1 (parent)
chain: GACCAAUCUGCCCUCAGAGCUCGAGAACAUCUUCGGAUGCAGAGGAGGCAGGCUUCGGUGGCGCGAUAGCGCCAACGUCCUCAACCUCCAAUGCAUCCCACCACAUGAUGAUGCCUGAAGAGCCUUGGUUUUUUG

Variants of: B1
Experiment: polymerase ribozyme fitness, log enrichment relative to wild type (log ratio); higher = more active; in vitro selection for triplet polymerase activity
In short: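 In triplicate, a single round of in vitro selection was run on each mutant library, PCR-built and transcribed, covering one subunit of a heterodimeric triplet polymerase ribozyme. Frozen incubation at −7 °C followed annealing with a biotinylated primer, partner subunit and triplets, and extended constructs were then gel-excised, streptavidin-captured and taken through RT-PCR. Fitness is the logarithm of genotype enrichment over wild-type enrichment, from inverse-variance-weighted replicate averages of Illumina-sequenced inputs and outputs. […] only genotypes with ≥10 input reads and ≥1 read per output were kept.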

| Variant | polymerase ribozyme fitness (log ratio) |
| --- | --- |
| G71C A74G A91C G93C C99G A105U A111G | -6.99 |
| G69C C124U | 0.177 |
| C70G U78G | -2.07 |
| C70G C85U A90U C104A C115A | -6.79 |
| C72G C79G | -1.67 |
| G71C A84U | -2.77 |
| C70U C97A | -4.6 |
| C70U C76A A121U U125G | -0.883 |
| G71U C115U | -1.41 |
| C72A C85U A90C | -1.5 |
| C70A U129C | -2.68 |
| C70A U129A | -3.27 |
| G69U U130G | 0.642 |
| C70U C72G G77C | -2.87 |
| G71A C101A | -2.55 |
| G71A C101U | -0.59 |
| C70A C98U U130G | -2.6 |
| C70A C89G | -3.96 |
| C72A A91C G127A | -2.21 |
| G71A U87G | -0.439 |
| G69U A84U C124U | 1.84 |
| C70A C104U | -1.79 |
| C70G U112C C114A | -4.91 |
| C70G A75C C115A | -1.54 |

| Variant | polymerase ribozyme fitness (log ratio) |
| --- | --- |
| C72A U132A | -0.00723 |
| C70A C73U A111C | -2.13 |
| C72G C82G A105C | -4.16 |
| C70U G110C | -4.32 |
| C70U G77U U78C A95U C123G | 0.382 |
| C70U A111C U116G A121C | -4.3 |
| G71C A121U | 0.296 |
| C70U C101U G117C | -5.37 |
| G71C G93C G127A | -2.95 |
| C72A C80U C88U | -0.793 |
| G71A U92A C94U C115G | -4.8 |
| G69U A105U | -0.0845 |
| G69U A105C | -0.532 |
| C70G U125A | -2.85 |
| C70G U125G | -4.85 |
| C70A C102U U112C | -2.21 |
| G69C C94U | -1.35 |
| G71C C89U U126C | -2.71 |
| C72A C89A C124G | 0.634 |
| G71A C114U | -2.27 |
| C70G C72U C123A U129G U133G | -2.93 |
| C72A C85A A121C | 1.56 |
| C70A G117C | -3.77 |
| C72G A90G G110U G135C | -2 |

| Variant | polymerase ribozyme fitness (log ratio) |
| --- | --- |
| G71U C79U | -0.201 |
| G69U G93A | -0.201 |
| G69C U78G C102U G110A | -6.81 |
| C70U U78A G120U G128A | -2.18 |
| C70A U106C U129A | -2.95 |
| C70G U78A C86A | -3.32 |
| G71C U106A G113C | -3.53 |
| G69C C70G C82A | -4.81 |
| C70U U78A A95U U112G U133A | -0.788 |
| C70A C86A U87G | -2.94 |
| C70A U112A | -0.662 |
| C70A U112C | 0.318 |
| C70G A119G | -1.37 |
| G71U U133A | -0.757 |
| G69U G120U | 1.02 |
| G71C C79A | -1.86 |
| G69C G122U C124U | -0.632 |
| G69U C102A | -1.4 |
| G69U C102U | -1.18 |
| C70G U87C | -4.17 |
| C70U C82G A118G | -1.41 |
| C72A A118C | -2.72 |
| C70A G127C | -2.17 |
| C70G U131A | -2 |

| Variant | polymerase ribozyme fitness (log ratio) |
| --- | --- |
| G71A G117C | -3.15 |
| G71U C82A U116A | -4.01 |
| G69C U81G C82U C104U U112G | -2.5 |
| G71U C89G | -1.88 |
| C70A C89G U125A | -4.36 |
| G69C U81G | -5.01 |
| C70U U109A | -4.47 |
| C72A A83C U96A G110A | -2.24 |
| G71U U126G | -2.34 |
| G71A G110C | -4.27 |
| C72A U131A G135U | 0.0704 |
| G69C G120C | -0.251 |
| C70U U96A | -1.14 |
| C70G U96A | -4.79 |
| G71C G117C | -4.7 |
| G71U C101G | -1.83 |
| G71U C101A | -1.24 |
| G71U C101U | -0.379 |
| C70A U87C C102A | -3.97 |
| G71C A84G U133A | -3.86 |
| G71C C98U | -1.75 |
| G71U A90U | -1.78 |
| G69C U133A | -1.62 |
| C70U U81A C82G | -2.96 |

| Variant | polymerase ribozyme fitness (log ratio) |
| --- | --- |
| C72A U129A | -1.32 |
| G69C A100U | -1.67 |
| G69U U112A | 1.84 |
| C72A C94U G120C | 1.05 |
| G69U C70U C80U G113C A119G | -3.06 |
| C72A C123A | 0.479 |
| C72A C123U | 1.5 |
| G69U C76G C85G G120U | -2.87 |
| C70G U132G U133A | -2.52 |
| G69U G110A A118C | 0.45 |
| C72G C86A G93C C104G A108U U109G A118G | -6.21 |
| C70A C102U | -4.59 |
| G71U A105C | -2.99 |
| G71A C89U U126C | -1.9 |
| C72G A83G | -0.0856 |
| G71A U81C C115U | -3.59 |
| G71U U131A | 0.00469 |
| C72A C82G | -0.603 |
| G69C C72A C94G | -5.12 |
| C70U U129C | -0.753 |
| C72A G110U | -1.54 |
| C70U C82A C85U | -1.4 |
| G69U G135U | -0.532 |
| G71A C98G | -6.1 |

| Variant | polymerase ribozyme fitness (log ratio) |
| --- | --- |
| C72G A95U | -1.07 |
| C70A C85U G110C C115U A121G | -7.89 |
| C70A C104A U109A G128C | -7.62 |
| G71U U81C G93A G120A | -0.964 |
| G69U C79U C80U U116C | -0.478 |
| G69U A111U | -1.16 |
| G71U C88U A100C U106G | -5.6 |
| G71A C94U | -1.55 |
| G71A C94G A108G C123A G135U | -4.8 |
| G71U C124G | 1.72 |
| G71U C99U | -4.69 |
| G69C C82A C97G U132A | -5.29 |
| C70U G71U | -0.437 |
| G69U G93U G120A U125G U129G | -0.716 |
| G71C G93A | -1.77 |
| C70A A100U | -2.07 |
| C72A U78G | -1.71 |
| C70G C114U | -4.81 |
| G69U U125A | -0.179 |
| C70G A84U | -3.25 |
| G71U G127U | -1.02 |
| C70A A111G | -1.42 |
| C70A A111C | -2.46 |
| C72A A100C G120A | -0.61 |

| Variant | polymerase ribozyme fitness (log ratio) |
| --- | --- |
| C72G A121C | 1.48 |
| C70U C115G U116C | -4.43 |
| G69C A91G | -1.94 |
| C70U A74G G120C | -1.57 |
| C70U C82A C123U G128A | -1.76 |
| G69C C104A C123G | -1.33 |
| C70A C73G G120C | -5.26 |
| C70A C88A C89U | -5.58 |
| C70U A119G | 0.891 |
| C70U G113C | -3.06 |
| G69U C70G A100C | -1.23 |
| C72G C73U C86G | -5.02 |
| C70U U87C U116A A121C | -2.16 |
| C72A C86U A108U | -5.12 |
| C72A U96A U109G | -6.14 |
| G69U C70G U109A A111C | -5.41 |
| G71U A91G G93U | -2.17 |
| G69C C86G A91U | -4.84 |
| G69U G117C | -2.27 |
| G69U C72G U78G U129C | -1.86 |
| C70G C86A | -4.89 |
| C72G A103U | -5.45 |
| C70U A108U | -5.38 |
